According to publication PMC3045595 (Nucleic Acids Research, 2010):

Biological target: the molecule itself
Experiment: SEC

B1: human TYW5 (tRNA yW-synthesizing enzyme 5), wild type (enzyme)
chain: MAGQHLPVPRLEGVSREQFMQHLYPQRKPLVLEGIDLGPCTSKWTVDYLSQVGGKKEVKIHVAAVAQMDFISKNFVYRTLPFDQLVQRAAEEKHKEFFVSEDEKYYLRSLGEDPRKDVADIRKQFPLLKGDIKFPEFFKEEQFFSSVFRISSPGLQLWTHYDVMDNLLIQVTGKKRVVLFSPRDAQYLYLKGTKSEVLNIDNPDLAKYPLFSKARRYECSLEAGDVLFIPALWFHNVISEEFGVGVNIFWKHLPSECYDKTDTYGNKDPTAASRAAQILDRALKTLAELPEEYRDFYARRMVLHIQDKAYSKNSE
- stoichiometry N: 2
